Test results taken from the supplement of paper PMC10065799, “High-throughput profiling of sequence recognition by tyrosine kinases and SH2 domains using bacterial peptide display” (eLife, 2023).

Legend:
[1] = test system: AncSZ; experiment: phosphorylation enrichment, bacterial display (enrichment ratio); higher = better substrate or ligand; peptides without Tyr show the background
[2] = molecular target: EPHB1 (UniProt P54762); experiment: as above
[3] = molecular target: EPHB2 (UniProt P29323); experiment: as above
Chain of EPHB2 (P29323 whole entry, looked up): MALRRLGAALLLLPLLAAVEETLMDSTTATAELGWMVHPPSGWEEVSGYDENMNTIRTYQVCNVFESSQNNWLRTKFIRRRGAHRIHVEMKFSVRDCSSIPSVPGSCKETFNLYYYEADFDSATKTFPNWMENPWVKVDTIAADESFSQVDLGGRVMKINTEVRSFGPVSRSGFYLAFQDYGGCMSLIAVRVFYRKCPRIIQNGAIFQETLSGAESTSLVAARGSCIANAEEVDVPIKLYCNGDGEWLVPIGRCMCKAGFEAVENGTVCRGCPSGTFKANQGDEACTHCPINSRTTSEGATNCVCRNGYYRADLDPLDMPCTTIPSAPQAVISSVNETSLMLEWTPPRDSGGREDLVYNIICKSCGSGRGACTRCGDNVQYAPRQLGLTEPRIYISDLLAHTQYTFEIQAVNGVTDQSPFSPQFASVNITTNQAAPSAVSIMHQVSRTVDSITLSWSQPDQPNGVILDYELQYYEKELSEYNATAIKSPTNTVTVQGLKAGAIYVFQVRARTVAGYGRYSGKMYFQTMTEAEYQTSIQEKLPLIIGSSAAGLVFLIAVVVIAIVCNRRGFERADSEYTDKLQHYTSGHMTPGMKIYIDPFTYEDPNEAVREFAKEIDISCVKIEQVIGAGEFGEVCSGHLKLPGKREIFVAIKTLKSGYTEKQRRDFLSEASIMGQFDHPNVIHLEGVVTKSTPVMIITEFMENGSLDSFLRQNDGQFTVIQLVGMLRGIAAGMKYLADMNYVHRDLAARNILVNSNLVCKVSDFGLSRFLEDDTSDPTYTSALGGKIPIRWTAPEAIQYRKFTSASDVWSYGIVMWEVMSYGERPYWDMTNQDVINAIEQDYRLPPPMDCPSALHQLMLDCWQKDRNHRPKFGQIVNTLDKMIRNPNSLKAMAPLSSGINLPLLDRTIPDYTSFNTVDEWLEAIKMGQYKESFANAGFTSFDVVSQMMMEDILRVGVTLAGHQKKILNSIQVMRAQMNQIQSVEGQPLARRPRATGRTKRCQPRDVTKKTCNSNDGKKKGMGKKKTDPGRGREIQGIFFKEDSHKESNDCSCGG

[4] = molecular target: FGFR1 (UniProt P11362); experiment: as above
Chain of FGFR1 (P11362 whole entry, looked up): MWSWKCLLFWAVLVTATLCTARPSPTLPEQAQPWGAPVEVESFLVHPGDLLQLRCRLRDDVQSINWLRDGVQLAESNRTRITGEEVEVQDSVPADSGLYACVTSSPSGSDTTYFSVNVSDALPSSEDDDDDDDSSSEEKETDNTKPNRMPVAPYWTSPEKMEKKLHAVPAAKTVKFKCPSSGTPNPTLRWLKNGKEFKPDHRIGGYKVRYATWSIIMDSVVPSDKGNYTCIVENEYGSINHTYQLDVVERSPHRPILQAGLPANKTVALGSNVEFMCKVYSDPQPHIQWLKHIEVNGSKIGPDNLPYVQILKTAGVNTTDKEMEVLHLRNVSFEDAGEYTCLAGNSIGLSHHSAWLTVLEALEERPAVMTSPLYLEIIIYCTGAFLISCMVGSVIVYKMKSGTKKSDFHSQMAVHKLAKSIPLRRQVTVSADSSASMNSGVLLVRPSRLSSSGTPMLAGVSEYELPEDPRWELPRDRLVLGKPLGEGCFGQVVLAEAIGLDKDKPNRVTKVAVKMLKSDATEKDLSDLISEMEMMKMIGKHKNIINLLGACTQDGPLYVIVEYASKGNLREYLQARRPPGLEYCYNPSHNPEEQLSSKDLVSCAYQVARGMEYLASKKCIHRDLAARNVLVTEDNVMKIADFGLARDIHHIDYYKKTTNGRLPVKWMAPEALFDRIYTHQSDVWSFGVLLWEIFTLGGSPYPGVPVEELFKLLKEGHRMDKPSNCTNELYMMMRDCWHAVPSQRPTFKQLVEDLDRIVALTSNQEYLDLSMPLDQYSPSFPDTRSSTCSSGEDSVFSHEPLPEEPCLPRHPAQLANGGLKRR

[5] = molecular target: FGFR3 (UniProt P22607); experiment: as above
[6] = test system: Fer (mouse); experiment: as above
[7] = molecular target: Fes (UniProt P07332); experiment: as above
Chain of Fes (P07332 whole entry, looked up): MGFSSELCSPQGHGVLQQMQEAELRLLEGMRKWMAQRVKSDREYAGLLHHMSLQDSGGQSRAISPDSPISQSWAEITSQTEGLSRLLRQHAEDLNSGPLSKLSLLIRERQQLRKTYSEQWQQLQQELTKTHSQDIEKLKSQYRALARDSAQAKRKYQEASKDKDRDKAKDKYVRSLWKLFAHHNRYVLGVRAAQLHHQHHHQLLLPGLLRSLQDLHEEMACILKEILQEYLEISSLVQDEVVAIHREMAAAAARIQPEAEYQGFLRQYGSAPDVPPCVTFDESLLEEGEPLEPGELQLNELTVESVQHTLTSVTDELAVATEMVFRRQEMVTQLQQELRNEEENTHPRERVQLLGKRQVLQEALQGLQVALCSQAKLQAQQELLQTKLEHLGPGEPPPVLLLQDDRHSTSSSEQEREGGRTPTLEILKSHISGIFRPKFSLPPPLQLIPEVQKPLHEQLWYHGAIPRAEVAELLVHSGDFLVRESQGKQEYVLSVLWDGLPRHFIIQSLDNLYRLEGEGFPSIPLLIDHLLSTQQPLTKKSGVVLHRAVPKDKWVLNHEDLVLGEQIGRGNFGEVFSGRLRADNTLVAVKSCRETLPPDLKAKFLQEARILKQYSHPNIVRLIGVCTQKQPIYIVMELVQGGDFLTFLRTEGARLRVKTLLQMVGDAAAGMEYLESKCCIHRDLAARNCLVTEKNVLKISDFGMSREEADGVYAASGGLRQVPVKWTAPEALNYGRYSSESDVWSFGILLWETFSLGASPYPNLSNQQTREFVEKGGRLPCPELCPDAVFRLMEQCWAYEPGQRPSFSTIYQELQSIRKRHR

[8] = molecular target: Fyn (UniProt P06241); experiment: as above
Chain of Fyn (P06241 whole entry, looked up): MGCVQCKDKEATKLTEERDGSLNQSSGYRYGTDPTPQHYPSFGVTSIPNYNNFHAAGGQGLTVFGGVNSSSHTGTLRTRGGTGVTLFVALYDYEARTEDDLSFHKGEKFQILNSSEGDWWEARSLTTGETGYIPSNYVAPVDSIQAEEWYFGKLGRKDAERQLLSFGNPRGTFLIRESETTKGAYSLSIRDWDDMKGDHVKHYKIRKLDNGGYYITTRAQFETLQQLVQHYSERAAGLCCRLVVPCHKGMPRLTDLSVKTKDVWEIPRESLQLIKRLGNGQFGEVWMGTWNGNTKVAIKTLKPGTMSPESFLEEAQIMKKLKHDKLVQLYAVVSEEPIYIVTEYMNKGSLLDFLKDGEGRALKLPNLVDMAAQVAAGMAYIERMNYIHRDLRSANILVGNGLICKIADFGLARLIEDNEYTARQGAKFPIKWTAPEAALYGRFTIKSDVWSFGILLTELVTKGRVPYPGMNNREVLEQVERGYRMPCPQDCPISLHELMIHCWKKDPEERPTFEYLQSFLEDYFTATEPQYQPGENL

[9] = molecular target: Hck (UniProt P08631); experiment: as above
Chain of Hck (P08631 whole entry, looked up): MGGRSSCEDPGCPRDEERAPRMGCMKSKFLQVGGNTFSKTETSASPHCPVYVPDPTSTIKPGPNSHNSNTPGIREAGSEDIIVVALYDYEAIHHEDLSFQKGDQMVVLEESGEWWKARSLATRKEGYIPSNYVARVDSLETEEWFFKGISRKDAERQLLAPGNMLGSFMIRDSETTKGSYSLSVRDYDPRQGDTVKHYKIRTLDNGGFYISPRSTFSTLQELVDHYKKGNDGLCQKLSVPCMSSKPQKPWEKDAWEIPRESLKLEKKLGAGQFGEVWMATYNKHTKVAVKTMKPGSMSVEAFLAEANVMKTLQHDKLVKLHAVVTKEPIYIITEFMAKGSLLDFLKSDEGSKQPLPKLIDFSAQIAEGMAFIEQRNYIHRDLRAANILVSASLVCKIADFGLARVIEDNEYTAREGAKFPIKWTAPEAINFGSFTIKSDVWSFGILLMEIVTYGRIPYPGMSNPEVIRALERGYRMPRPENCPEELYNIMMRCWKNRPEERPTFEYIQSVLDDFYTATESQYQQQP

[10] = molecular target: Jak2 (UniProt O60674); experiment: as above
[11] = molecular target: MERTK (UniProt Q12866); experiment: as above
[12] = test system: c-Abl (mouse); experiment: as above
[13] = test system: c-Src; experiment: as above
[14] = molecular target: Grb2 SH2 (UniProt P62993); experiment: SH2 binding enrichment of the phosphorylated peptide, bacterial display (enrichment ratio); higher = better substrate or ligand; peptides without Tyr show the background
[15] = molecular target: SHP2-C SH2; experiment: as above
[16] = molecular target: c-Src SH2; experiment: as above
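Throughout, for SH2 binding enrichment of the phosphorylated peptide, bacterial display: peptide library displayed on the E. coli surface as eCPX fusions, selected cells deep-sequenced, score is each peptide's frequency after selection divided by its frequency in the input.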
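Throughout, for phosphorylation enrichment, bacterial display: 11-residue human phosphosite peptides and single-mutation variants displayed on the E. coli surface, counted by deep sequencing, each peptide's frequency after selection divided by its frequency in the unselected input library; frequency after pTyr selection over input frequency; kinase dosed for 20-30% of maximal phosphorylation in three min.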

Chain of EPHB1 (P54762 whole entry, looked up): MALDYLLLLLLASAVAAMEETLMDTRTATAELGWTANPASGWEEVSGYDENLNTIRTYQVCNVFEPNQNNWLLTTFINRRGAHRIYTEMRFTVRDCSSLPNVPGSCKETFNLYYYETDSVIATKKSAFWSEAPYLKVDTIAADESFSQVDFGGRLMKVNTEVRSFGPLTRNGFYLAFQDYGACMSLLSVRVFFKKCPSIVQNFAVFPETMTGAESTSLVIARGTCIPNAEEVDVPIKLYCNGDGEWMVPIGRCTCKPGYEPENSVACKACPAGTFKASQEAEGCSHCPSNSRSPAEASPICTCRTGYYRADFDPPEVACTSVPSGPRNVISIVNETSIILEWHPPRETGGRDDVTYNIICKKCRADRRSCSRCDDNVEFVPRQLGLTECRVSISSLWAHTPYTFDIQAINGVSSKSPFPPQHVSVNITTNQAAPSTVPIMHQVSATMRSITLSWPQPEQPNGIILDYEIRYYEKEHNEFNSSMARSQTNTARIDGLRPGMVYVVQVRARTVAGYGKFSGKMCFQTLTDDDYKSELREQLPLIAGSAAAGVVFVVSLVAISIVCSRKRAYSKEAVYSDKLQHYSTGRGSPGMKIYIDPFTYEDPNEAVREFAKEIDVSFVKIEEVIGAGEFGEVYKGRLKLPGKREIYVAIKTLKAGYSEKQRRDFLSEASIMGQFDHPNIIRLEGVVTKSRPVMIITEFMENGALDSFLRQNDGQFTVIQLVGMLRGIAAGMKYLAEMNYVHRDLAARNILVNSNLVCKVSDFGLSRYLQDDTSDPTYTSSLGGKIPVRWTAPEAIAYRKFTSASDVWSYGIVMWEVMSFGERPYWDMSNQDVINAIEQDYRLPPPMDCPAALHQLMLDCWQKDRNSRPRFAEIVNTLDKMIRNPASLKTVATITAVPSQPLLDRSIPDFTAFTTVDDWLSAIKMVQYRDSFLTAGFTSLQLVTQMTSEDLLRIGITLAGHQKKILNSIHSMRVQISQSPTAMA

| SH2 binding enrichment [14] | SH2 binding enrichment [15] | SH2 binding enrichment [16] | Sequence | phosphorylation enrichment [1] | phosphorylation enrichment [2] | phosphorylation enrichment [3] | phosphorylation enrichment [4] | phosphorylation enrichment [5] | phosphorylation enrichment [6] | phosphorylation enrichment [7] | phosphorylation enrichment [8] | phosphorylation enrichment [9] | phosphorylation enrichment [10] | phosphorylation enrichment [11] | phosphorylation enrichment [12] | phosphorylation enrichment [13] |
| --- | --- | --- | --- | --- | --- | --- | --- | --- | --- | --- | --- | --- | --- | --- | --- | --- |
| 0.706 | 0.553 | 0.45 | GEVLVYVEDPA [FLNA_Y319] | 1.33 | 0.798 | 0.728 | 0.694 | 0.81 | 0.85 | 1.41 | 0.529 | 0.589 | 1.34 | 0.478 | 0.917 | 0.636 |
| 0.985 | 2.14 | 0.649 | GGMTEYKLVVV [KRAS_Y4] | 0.852 | 0.514 | 0.569 | 1.01 | 0.776 | 0.423 | 0.929 | 0.488 | 0.446 | 0.685 | 0.368 | 0.539 | 0.369 |
| 0.822 | 0.694 | 0.679 | GGPTYYIDTNA [ACTL6A_Y69] | 0.885 | 0.698 | 0.514 | 1.09 | 0.963 | 0.407 | 0.893 | 0.926 | 0.899 | 0.727 | 1.08 | 0.555 | 0.778 |
| 0.665 | 0.655 | 0.474 | GGQVFHNSEYG [FLT4_Y1333_Y1333H] | 0.581 | 0.438 | 0.431 | 0.386 | 0.535 | 0.349 | 0.712 | 0.362 | 0.377 | 0.67 | 0.314 | 0.857 | 0.425 |
| 0.623 | 0.735 | 0.45 | GGQVFYNSEFG [FLT4_Y1333_YF] | 1.09 | 0.619 | 0.617 | 0.551 | 0.766 | 0.53 | 1.11 | 0.479 | 0.532 | 1.25 | 0.546 | 0.884 | 0.838 |
| 1.25 | 1.31 | 1.97 | GHLYAYDWIRI [BEST1_Y227_S231R] | 1.44 | 3.44 | 2.42 | 4.35 | 2.73 | 15.8 | 3.03 | 1.84 | 3.12 | 0.941 | 9.27 | 0.857 | 2.28 |
| 0.915 | 0.759 | 0.469 | GHNNVYISEHV [GRIN2A_Y1423_D1421N] | 0.734 | 0.374 | 0.459 | 0.421 | 0.463 | 0.393 | 0.6 | 0.475 | 0.476 | 0.769 | 0.419 | 0.522 | 0.425 |
| 0.907 | 2.06 | 0.746 | GITTGYLVLKE [DNMT3B_Y588_A585T] | 0.668 | 0.39 | 0.532 | 0.456 | 0.572 | 0.542 | 0.797 | 0.404 | 0.438 | 0.616 | 0.334 | 0.389 | 0.371 |
| 0.906 | 0.932 | 0.571 | GKMPQYLESMQ [CYB5R3_Y130_S128P] | 0.741 | 0.492 | 0.412 | 0.517 | 0.554 | 0.304 | 0.701 | 0.537 | 0.466 | 0.73 | 0.473 | 0.614 | 0.459 |
| 0.756 | 0.636 | 0.42 | GLDGSYLLRDS [SH2D1A_Y29] | 0.574 | 0.371 | 0.387 | 0.426 | 0.464 | 0.39 | 0.622 | 0.413 | 0.563 | 0.578 | 0.413 | 0.471 | 0.397 |
| 0.85 | 0.718 | 0.618 | GLRQGYFVEAQ [APCS_Y142] | 0.945 | 0.526 | 0.505 | 0.559 | 0.637 | 0.42 | 1.08 | 0.366 | 0.408 | 0.807 | 0.36 | 0.529 | 0.327 |
| 0.796 | 0.801 | 0.444 | GNEEAYGRSHI [FAM171B_Y522] | 0.825 | 0.448 | 0.438 | 0.378 | 0.575 | 0.456 | 0.823 | 0.425 | 0.471 | 0.905 | 0.455 | 0.706 | 0.471 |
| 0.687 | 0.668 | 0.471 | GNLLIYTEFGK [HGD_Y166] | 1.28 | 1.81 | 1.13 | 0.56 | 0.731 | 0.54 | 1.28 | 7.36 | 4.65 | 1.14 | 4.24 | 3.12 | 5.93 |
| 0.732 | 0.643 | 0.551 | GPGLVYGVANK [FLNB_Y1833] | 0.531 | 0.421 | 0.405 | 0.648 | 0.483 | 0.51 | 0.689 | 1.59 | 3.44 | 0.718 | 0.422 | 0.545 | 2.83 |
| 1.09 | 0.963 | 0.781 | GQLIFYAPPEW [CNTN6_Y315] | 1.39 | 0.938 | 3.08 | 0.513 | 0.731 | 2.04 | 1.18 | 0.576 | 0.829 | 1.5 | 3.46 | 2.95 | 0.822 |
| 0.662 | 0.824 | 0.531 | GQSKGYRPKLY [SIPA1L3_Y1376] | 0.43 | 0.316 | 0.393 | 0.357 | 0.454 | 0.411 | 0.489 | 0.45 | 0.4 | 0.416 | 0.431 | 0.329 | 0.387 |

| Sequence | SH2 binding enrichment [14] | SH2 binding enrichment [15] | SH2 binding enrichment [16] | phosphorylation enrichment [1] | phosphorylation enrichment [2] | phosphorylation enrichment [3] | phosphorylation enrichment [4] | phosphorylation enrichment [5] | phosphorylation enrichment [6] | phosphorylation enrichment [7] | phosphorylation enrichment [8] | phosphorylation enrichment [9] | phosphorylation enrichment [10] | phosphorylation enrichment [11] | phosphorylation enrichment [12] | phosphorylation enrichment [13] |
| --- | --- | --- | --- | --- | --- | --- | --- | --- | --- | --- | --- | --- | --- | --- | --- | --- |
| GHNDVYISEHV [GRIN2A_Y1423] | 1.1 | 0.535 | 0.456 | 0.552 | 0.331 | 0.447 | 0.393 | 0.478 | 0.317 | 0.618 | 0.416 | 0.438 | 0.407 | 0.332 | 0.33 | 0.395 |
